For assay [1], the target named is T1, human CD40 on cells (human, UniProt P25942 21-277).
T1 construct: whole, on cells; also called cell surface CD40; Jurkat-CD40
As to the kind of experiment: FACS on human dendritic cells, MFI.

The target of assay [2] is T1, human CD40 on cells. The experiment in a line: FACS on Jurkat cells overexpressing human CD40, PE anti-human IgG, MFI. Here is the method:
To evaluate their binding affinity to cell surface CD40, chimeric anti-CD40 monospecific antibodies were tested in Jurkat cell lines that overexpressed CD40 by FACS. A total number of 1×10⁵ Jurkat-CD40 cells in each well were incubated with 10-fold serially diluted antibodies starting from 100 nM for 30 minutes at 4° C. in FACS buffer. After wash by FACS buffer, PE conjugated-anti-human IgG antibody was added to each well and incubated at 4° C. for 30 minutes. After wash, MFI of PE was evaluated by MACSQuant Analyzer 16.

Where a chain is given by its changes, count along the chain named.

T1 sequence (P25942 21-277): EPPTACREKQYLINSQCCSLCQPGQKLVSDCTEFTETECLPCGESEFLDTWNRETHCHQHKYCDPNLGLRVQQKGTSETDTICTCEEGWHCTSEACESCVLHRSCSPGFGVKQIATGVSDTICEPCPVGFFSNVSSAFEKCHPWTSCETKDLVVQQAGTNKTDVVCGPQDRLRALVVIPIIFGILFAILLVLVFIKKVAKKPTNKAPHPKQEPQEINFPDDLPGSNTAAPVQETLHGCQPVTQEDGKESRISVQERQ

B1: b16 (42p155z2)-LALA humanized anti-5T4/CD40 bispecific antibody (bispecific antibody, human IgG1, kappa, L234A L235A)
heavy 1: QVQLVQSGAEVKKPGASVKVSCKASGYAFSSSWMNWVRQAPGQGLEWMGRIYREDGHTNYNGKFKGRVTMTADKSITTAYMELSRLRSDDTAVYYCANGGAMDYWGQGTLVTVSSASTKGPSVFPLAPSSKSTSGGTAALGCLVKDYFPEPVTVSWNSGALTSGVHTFPAVLQSSGLYSLSSVVTVPSSSLGTQTYICNVNHKPSNTKVDKKVEPKSCDKTHTCPPCPAPEAAGGPSVFLFPPKPKDTLMISRTPEVTCVVVDVSHEDPEVKFNWYVDGVEVHNAKTKPREEQYNSTYRVVSVLTVLHQDWLNGKEYKCKVSNKALPAPIEKTISKAKGQPREPQVCTLPPSREEMTKNQVSLSCAVKGFYPSDIAVEWESNGQPENNYKTTPPVLDSDGSFFLVSKLTVDKSRWQQGNVFSCSVMHEALHNHYTQKSLSLSPGK
light: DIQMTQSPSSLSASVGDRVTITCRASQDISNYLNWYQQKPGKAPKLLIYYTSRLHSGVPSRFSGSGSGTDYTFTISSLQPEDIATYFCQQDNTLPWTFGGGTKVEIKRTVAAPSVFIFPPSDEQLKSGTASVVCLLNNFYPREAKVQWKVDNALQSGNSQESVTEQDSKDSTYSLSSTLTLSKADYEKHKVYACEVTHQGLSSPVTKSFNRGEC
heavy 2: not shown
notes: 1+2 b16 format, humanized 5T4 arm; also called b16 (42p15522)-LALA
B1: the 50% effective concentration (EC50 (read off the curve)) (commonly the concentration that produces a half-maximal response) with human CD40 on cells [1] is approximately 600 pM.

B2: 2p1294 chimeric monospecific antibody (antibody, V domains shown)
VH: QVQLVESGGGLVQPGGSLRLSCAASGFSFRRYTMSWVRQAPGKGLEWVSAISDNGAITTYTESAQGRFTISRDNAKNTLYLQMNSLKPEDTAVYYCAQGGGSNYYRESWGQGTQVTVSS
notes: chimeric monospecific antibody made from the alpaca VHH
As to B2, in the assay with human CD40 on cells [2], the “EC50 (read off the curve)” value was approximately 200 pM.

B3: 42p655 chimeric monospecific antibody (antibody, V domains shown)
VH: B2 VH with Q1A, S28A, A50S, S52T, A56S, T61A, Y95H
notes: as for B2
As to B3, the “EC50 (read off the curve)” value in the assay with human CD40 on cells [2] is approximately 200 pM.

Values taken from patent US20240209109A1 (CONCEPT TO MEDICINE BIOTECH, published 2024).
